Assay results from CN117126289A (SUNSHINE GUOJIAN PHARMACEUTICAL SHANGHAI CO LTD, dated 2023).

T1: 重组Human-CD3-FC蛋白 (human)
T1 chain: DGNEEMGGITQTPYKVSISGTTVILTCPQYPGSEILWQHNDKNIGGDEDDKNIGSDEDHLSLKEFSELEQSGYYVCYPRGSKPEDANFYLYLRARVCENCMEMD

T2: 重组Human-TROP-2-HIS蛋白 (human, UniProt P09758 27-274, limits assumed)
T2 construct: Bought protein; also called TROP-2-HIS蛋白 (恺佧, TRP-HM121); not shown: His tag
T2 sequence (looked up): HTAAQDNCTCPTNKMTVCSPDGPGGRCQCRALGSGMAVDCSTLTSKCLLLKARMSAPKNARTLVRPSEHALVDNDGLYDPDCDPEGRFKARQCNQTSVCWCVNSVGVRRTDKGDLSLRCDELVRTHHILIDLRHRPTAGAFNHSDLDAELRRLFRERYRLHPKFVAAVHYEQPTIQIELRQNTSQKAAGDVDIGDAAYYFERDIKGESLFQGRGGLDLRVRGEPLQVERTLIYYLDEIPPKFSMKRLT


Legend:
重组Human-CD3-FC蛋白 = molecular target: T1, 重组Human-CD3-FC蛋白; experiment: ELISA, coated CD3-FC 200 ng/ml, HRP goat anti-human Fab
重组Human-TROP-2-HIS蛋白 = molecular target: T2, 重组Human-TROP-2-HIS蛋白; experiment: ELISA, coated TROP-2-HIS 200 ng/ml, HRP goat anti-human Fc

Row | Binder | EC50 (重组Human-CD3-FC蛋白) [nM] | EC50 (重组Human-TROP-2-HIS蛋白) [nM]
1 | 人源化SP34 (抗CD3单抗阳性对照) (antibody, human IgG1, kappa, V domains shown, Full-length humanised SP34: VH + human IgG1 constant region, VL + human Kappa constant region; also called 阳性对照CD3单抗; 人源化SP34单克隆抗体) VH: EVQLVESGGGLVQPGGSLRLSCAASGFTFNTYAMNWVRQAPGKGLEWVARIRSKYNNYATYYADSVKDRFTISRDDSKNTLYLQMNSLRAEDTAVYYCVRHGNFGNSYVSWFAYWGQGTLVTVSS VL: QAVVTQEPSLTVSPGGTVTLTCRSSTGAVTTSNYANWVQQKPGQAPRGLIGGTNKRAPGVPARFSGSLLGGKAALTLSGAQPEDEAEYYCALWYSNLWVFGQGTKVEIKR | 0.0618 | –
2 | KM4097HV3aLV0人源化单克隆抗体 (抗TROP-2单抗阳性对照) (antibody, V domains shown, IgG (detected with anti-human Fc); also called 阳性对照抗TROP-2单抗) VH: QVQLVQSGPEVKKPGASVKVSCKASGYTFTIYWLGWVRQAPGQGLEWMGNIFPGSAYINYNEKFKGKVTITADTSTSTAYMELSSLRSEDTAVYFCAREGSNSGYWGQGTLVTVSS VL: DIVMTQSPDSLAVSLGERATINCKSSQSLLNSGNQQNYLAWYQQKPGQPPKLLIYGASTRESGVPDRFSGSGSGTDFTLTISSLQAEDVAVYYCQSDHIYPYTFGQGTKLEIKR | – | 0.0261
